Data on six molecules can be found in US10801046B2, “Methods and materials for biosynthesizing multifunctional, multivariate molecules via carbon chain modification” (INVISTA NORTH AMERICA S.A.R.L., priority 2016, dated 2020).

The subject of experiment [1] is heptanedioyl-[acp] or heptanedioyl-[acp] methyl ester. In words: Thioesterase enzyme activity assay, release of holo-ACP monitored by absorbance at 412 nm. Type of experiment: biochemical. The conditions noted are these: purified thioesterase, 37° C., 30 min, FIG. 41. The protocol:
The thioesterases were expressed and purified following procedures disclosed herein. The enzyme activity assay was performed in duplicate or triplicate in a buffer having heptanedioyl-[acp] or heptanedioyl-[acp] methyl ester as substrate. The enzyme activity assay reaction was initiated by adding purified thioesterase gene products to the assay buffer and incubating at 37° C. for 30 min. The release of holo-ACP was monitored by absorbance at 412 nm. The absorbance associated with the empty vector control is very low. Many of the gene products of thioesterases accepted heptanedioyl-[acp] or heptanedioyl-[acp] methyl ester as substrate as confirmed via relative spectrophotometry (see FIG. 41).

Experiment [2] is described as follows: Aminotransferase activity, heptane-1,7-diamine to 7-aminoheptanal, L-alanine formation by RP-HPLC. Type of experiment: biochemical. The conditions noted are these: cell free extract, 10 mM substrate, 25° C., 4 h, against empty vector control, FIG. 50. The protocol:
A sequence encoding an N-terminal His-tag was added to the Chromobacterium violaceum, Pseudomonas aeruginosa, Pseudomonas syringae, Rhodobacter sphaeroides, Escherichia coli, and Vibrio fluvialis genes encoding the aminotransferases of SEQ ID NOs: 116 (GenBank Accession No. AAQ59697.1), 119 (RefSeq Accession No. NP_417544.5), 125 (GenBank Accession No. AAGO8191.1), 126 (GenBank Accession No. AAY39893.1), 127 (GenBank Accession No. ABA81135.1), and 128 (GenBank Accession No. AEA39183.1), respectively such that N-terminal HIS tagged aminotransferases could be produced. The modified genes were cloned into a pET21a expression vector under the T7 promoter. Each expression vector was transformed into a BL21[DE3] E. coli host. Each resulting recombinant E. coli strain were cultivated at 37° C. in a 250 mL shake flask culture containing 50 mL LB media and antibiotic selection pressure, with shaking at 230 rpm. Each culture was induced overnight at 16° C. using 1 mM IPTG.
The pellet from each induced shake flask culture was harvested via centrifugation. Each pellet was resuspended and lysed via sonication. The cell debris was separated from the supernatant via centrifugation and the cell free extract was used immediately in enzyme activity assays.
Enzyme activity assays in the reverse direction (i.e., heptane-1,7-diamine to 7-aminoheptanal) were performed in a buffer composed of a final concentration of 50 mM HEPES buffer (pH=7.5), 10 mM heptane-1,7-diamine, 10 mM pyruvate, and 100 μM pyridoxyl 5′ phosphate. Each enzyme activity assay reaction was initiated by adding cell free extract of the aminotransferase gene product or the empty vector control to the assay buffer containing the heptane-1,7-diamine and then incubated at 25° C. for 4 h, with shaking at 250 rpm. The formation of L-alanine was quantified via RP-HPLC.

Experiment [3] in a line: Aminotransferase activity, N7-acetyl-1,7-diaminoheptane to N7-acetyl-7-aminoheptanal, L-alanine formation by RP-HPLC. The conditions noted are these: cell free extract, 10 mM substrate, 25° C., 4 h, against empty vector control, FIG. 51. The format is biochemical. On the procedure: The activity of the N-terminal His-tagged aminotransferases of SEQ ID NOs: 116 (GenBank Accession No. AAQ59697.1), 119 (RefSeq Accession No. NP_417544.5), 125 (GenBank Accession No. AAGO8191.1), 126 (GenBank Accession No. AAY39893.1), 127 (GenBank Accession No. ABA81135.1), and 128 (GenBank Accession No. AEA39183.1) (see Example 6) for converting N7-acetyl-1,7-diaminoheptane to N7-acetyl-7-aminoheptanal was assayed using a buffer composed of a final concentration of 50 mM HEPES buffer (pH=7.5), 10 mM N7-acetyl-1,7-diaminoheptane, 10 mM pyruvate and 100 μM pyridoxyl 5′ phosphate. Each enzyme activity assay reaction was initiated by adding a cell free extract of the aminotransferases or the empty vector control to the assay buffer containing the N7-acetyl-1,7-diaminoheptane then incubated at 25° C. for 4 h, with shaking at 250 rpm. The formation of L-alanine was quantified via RP-HPLC.

In the next experiment the test system is heptanedioyl-ACP. The format is cell-based, Escherichia coli. The conditions noted are these: top 150 hits screened in vivo.

B1: 14 TE: Paenibacillus lactis thioesterase (protein)
chain: MVEKWTETYTIQSVDADFRGDCRWSSLLSIMQRAADKHIEALGIDREEMIERGLGWMLITLEADMTSIPRDMETIHVETWSRGSKGVLWHRDYRIMNDHGEQVGGARSVWTLVDIQKRKILRPSMFPYDVPIGQDSVGELPSKAVLPEGIELGEAYTTVVRYSGIDVNGHLNNARYADLCMDVLDEPELQGDKVTGFKITYNHEARLKDTIIVRRSGEIEGRIFVQGVSPEGTNFFEAALVKRKQ
modifications: Paenibacillus lactis 154
notes: Paenibacillus lactis thioesterase
Turning to B1, the “synthesis of holo-ACP using heptanedioyl-[acp] methyl ester as substrate, compared to using heptanedioyl-[acp] as substrate” value in experiment [1] is given as “more efficiently”.

B2: SEQ ID NO: 119: Escherichia coli aminotransferase, gene product of ygjG (protein)
chain: MNRLPSSASALACSAHALNLIEKRTLDHEEMKALNREVIEYFKEHVNPGFLEYRKSVTAGGDYGAVEWQAGSLNTLVDTQGQEFIDCLGGFGIFNVGHRNPVVVSAVQNQLAKQPLHSQELLDPLRAMLAKTLAALTPGKLKYSFFCNSGTESVEAALKLAKAYQSPRGKFTFIATSGAFHGKSLGALSATAKSTFRKPFMPLLPGFRHVPFGNIEAMRTALNECKKTGDDVAAVILEPIQGEGGVILPPPGYLTAVRKLCDEFGALMILDEVQTGMGRTGKMFACEHENVQPDILCLAKALGGGVMPIGATIATEEVFSVLFDNPFLHTTTFGGNPLACAAALATINVLLEQNLPAQAEQKGDMLLDGFRQLAREYPDLVQEARGKGMLMAIEFVDNEIGYNFASEMFRQRVLVAGTLNNAKTIRIEPPLTLTIEQCELVIKAARKALAAMRVSVEEA
modifications: Escherichia coli (strain K12)
notes: Escherichia coli aminotransferase, gene product of ygjG
For the molecule B2, in experiment [2], the “acceptance of heptane-1,7-diamine as substrate, forming 7-aminoheptanal” value is “accepted heptane-1,7-diamine as substrate”. For the same molecule, the “acceptance of N7-acetyl-1,7-diaminoheptane as substrate, forming N7-acetyl-7-aminoheptanal” value in experiment [3] is recorded as “accepted N7-acetyl-1,7-diaminoheptane as a substrate”.

B3: SEQ ID NO: 125: Pseudomonas aeruginosa aminotransferase (protein, listed as Pseudomonas aeruginosa)
chain: MNARLHATSPLGDADLVRADQAHYMHGYHVFDDHRVNGSLNIAAGDGAYIYDTAGNRYLDAVGGMWCTNIGLGREEMARTVAEQTRLLAYSNPFCDMANPRAIELCRKLAELAPGDLDHVFLTTGGSTAVDTAIRLMHYYQNCRGKRAKKHVITRINAYHGSTFLGMSLGGKSADRPAEFDFLDERIHHLACPYYYRAPEGLGEAEFLDGLVDEFERKILELGADRVGAFISEPVFGSGGVIVPPAGYHRRMWELCQRYDVLYISDEVVTSFGRLGHFFASQAVFGVQPDIILTAKGLTSGYQPLGACIFSRRIWEVIAEPDKGRCFSHGFTYSGHPVACAAALKNIEIIEREGLLAHADEVGRYFEERLQSLRDLPIVGDVRGMRFMACVEFVADKASKALFPESLNIGEWVHLRAQKRGLLVRPIVHLNVMSPPLILTREQVDTVVRVLRESIEETVEDLVRAGHR
modifications: Pseudomonas aeruginosa (strain ATCC 15692 / DSM 22644 / CIP 104116 / JCM 14847 / LMG 12228 / 1C / PRS 101 / PAO1)
notes: Pseudomonas aeruginosa aminotransferase
B3: in experiment [2], the “acceptance of heptane-1,7-diamine as substrate, forming 7-aminoheptanal” value is “accepted heptane-1,7-diamine as substrate”. Also, the “acceptance of N7-acetyl-1,7-diaminoheptane as substrate, forming N7-acetyl-7-aminoheptanal” value in experiment [3] is given as “accepted N7-acetyl-1,7-diaminoheptane as a substrate”.

B4: 11TE: Bacillus coagulans thioesterase (protein)
chain: MANGSSLYKGQYHIELRDVDFTKKLKLSALFSLFQDIASLAAEDLGYGIETLEKKYKVAWILTRIRVDILRHPTWDENITIETWPLQPSKIDFDRDFLVKDHTGAVIIKAASKWVVMGLNDRKIKRTESINIHYPENRTERAIEGKFGKFKDFGGLEPAYQKVIGYSDIDFNGHLNNSKYVDYIMDCFLPDFHKRHPIHTIEINFNQEALPGDSITLYKDISKMDEHELYVEGVNQTDHHTIFKSHITIH
modifications: Bacillus coagulans (strain 2-6)
notes: Bacillus coagulans thioesterase
For the molecule B4, in experiment [1], the “synthesis of holo-ACP using heptanedioyl-[acp] methyl ester as substrate, compared to using heptanedioyl-[acp] as substrate” value is “more efficiently”. The “activity toward heptanedioyl-ACP in vivo” value in the experiment with heptanedioyl-ACP is recorded as “displayed considerable activity toward heptanedioyl-ACP”.

B5: 5TE: Lactobacillus brevis thioesterase (protein)
chain: MAANEFSETHRVVYYEADDTGQLTLAMLINLFVLVSEDQNDALGLSTAFVQSHGVGWVVTQYHLHIDELPRTGAQVTIKTRATAYNRYFAYREYWLLDDAGQVLAYGEGIWVTMSYATRKITTIPAEVMAPYHSEEQTRLPRLPRPDHFDEAVNQTLKPYTVRYFDIDGNGHVNNAHYFDWMLDVLPATFLRAHHPTDVKIRFENEVQYGHQVTSELSQAAALTTQHMIKVGDLTAVKATIQWDNR
modifications: Lactobacillus brevis (strain ATCC 367 / JCM 1170)
notes: Lactobacillus brevis thioesterase
B5: in experiment [1], the “synthesis of holo-ACP using heptanedioyl-[acp] methyl ester as substrate, compared to using heptanedioyl-[acp] as substrate” value is listed as “more efficiently”.

B6: 6TE: Lactobacillus delbrueckii thioesterase (protein, listed as Lactobacillus delbrueckii)
chain: MRYYKDYQLKYVDCGESGQLKLPRMIDLMMESSEGQLAPTLGGASAMKERGRGWVVTQYEFEFTSLPRAGQKVRVWTEAVGYNRFLSYRDFGIEDEAGKDLVIAHSQWVLFDLKSRKLLPSDDKIAEELGAPLLAKIPRFKKLRPKDDYKDEKVYRAYYYDLDSNHHVNNAHYLDWIVDSLPRDFVNSHEPKDLAIKFDKEIKYGDEVVCQVMQETEDSAVKTCHAITRQGELMALCEVNWQKMCFNRD
Regarding B6, the “synthesis of holo-ACP using heptanedioyl-[acp] methyl ester as substrate, compared to using heptanedioyl-[acp] as substrate” value in experiment [1] is given as “more efficiently”.
